Measured values as given in the supplement of paper PMC11316812.
± gives the standard deviation of the averaged measurements.

Assays:
MCF7 = assay: percentage of EdU-negative (G0-arrested) nuclei per well, 72 h; higher = more G0 arrest; details: reference: sequence is the full UniProt precursor, the tested protein was the secreted form or ectodomain
hTERT-HMEC = assay: as above; details: reference: sequence is the full UniProt precursor, the tested protein was the secreted form or ectodomain
[1] = protein concentration 0.0225 µM
[2] = protein concentration 0.0114286 µM
[3] = protein concentration 0.114286 µM
[4] = protein concentration 0.01975 µM
[5] = protein concentration 0.1975 µM
[6] = protein concentration 0.01025 µM
[7] = protein concentration 0.1025 µM
[8] = protein concentration 0.03125 µM
[9] = protein concentration 0.3125 µM
[10] = protein concentration 0.0117143 µM
[11] = protein concentration 0.117143 µM
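Note: secreted proteins added to cultured cells, EdU pulse at the end, nuclei found by Hoechst imaging, EdU status from nuclear versus surrounding ring intensity ratio, PBS as neutral control.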

MEPAAALHFSLPASLLLLLLLLLLSLCALVSAQFTVVGPANPILAMVGENTTLRCHLSPEKNAEDMEVRWFRSQFSPAVFVYKGGRERTEEQMEEYRGRITFVSKDINRGSVALVIHNVTAQENGIYRCYFQEGRSYDEAILRLVVAGLGSKPLIEIKAQEDGSIWLECISGGWYPEPLTVWRDPYGEVVPALKEVSIADADGLFMVTTAVIIRDKYVRNVSCSVNNTLLGQEKETVIFIPESFMPSASPWMVALAVILTASPWMVSMTVILAVFIIFMAVSICCIKKLQREKKILSGEKKVEQEEKEIAQQLQEELRWRRTFLHAADVVLDPDTAHPELFLSEDRRSVRRGPYRQRVPDNPERFDSQPCVLGWESFASGKHYWEVEVENVMVWTVGVCRHSVERKGEVLLIPQNGFWTLEMFGNQYRALSSPERILPLKESLCRVGVFLDYEAGDVSFYNMRDRSHIYTCPRSAFTVPVRPFFRLGSDDSPIFICPALTGASGVMVPEEGLKLHRVGTHQSL [Q8WVV5]
percentage of EdU-negative (MCF7; [1]): 25.6 ± 3.6%
percentage of EdU-negative (MCF7; protein concentration 0.225 µM): 27.8 ± 0.4%
percentage of EdU-negative (hTERT-HMEC; [1]): 4.5399 ± 0.0037%
percentage of EdU-negative (hTERT-HMEC; protein concentration 0.225 µM): 8.99 ± 1.1%

MPMFIVNTNVPRASVPDGFLSELTQQLAQATGKPPQYIAVHVVPDQLMAFGGSSEPCALCSLHSIGKIGGAQNRSYSKLLCGLLAERLRISPDRVYINYYDMNAANVGWNNSTFA
percentage of EdU-negative (MCF7; [1]): 24.4 ± 1.2%
percentage of EdU-negative (MCF7; protein concentration 0.225 µM): 26.3 ± 2%
percentage of EdU-negative (hTERT-HMEC; [1]): 4.84 ± 1.4%
percentage of EdU-negative (hTERT-HMEC; protein concentration 0.225 µM): 6.38 ± 1.7%

H7BXV5
percentage of EdU-negative (MCF7; [2]): 23 ± 0.76%
percentage of EdU-negative (MCF7; [3]): 23.83 ± 0.21%
percentage of EdU-negative (hTERT-HMEC; [2]): 4.71 ± 0.48%
percentage of EdU-negative (hTERT-HMEC; [3]): 7.28 ± 0.91%

MKPPFLLALVVCSVVSTNLKMVSKRNSVDGCIDWSVDLKTYMALAGEPVRVKCALFYSYIRTNYSTAQSTGLRLMWYKNKGDLEEPIIFSEVRMSKEEDSIWFHSAEAQDSGFYTCVLRNSTYCMKVSMSLTVAENESGLCYNSRIRYLEKSEVTKRKEISCPDMDDFKKSDQEPDVVWYKECKPKMWRSIIIQKGNALLIQEVQEEDGGNYTCELKYEGKLVRRTTELKVTALLTDKPPKPLFPMENQPSVIDVQLGKPLNIPCKAFFGFSGESGPMIYWMKGEKFIEELAGHIREGEIRLLKEHLGEKEVELALIFDSVVEADLANYTCHVENRNGRKHASVLLRKKDLIYKIELAGGLGAIFLLLVLLVVIYKCYNIELMLFYRQHFGADETNDDNKEYDAYLSYTKVDQDTLDCDNPEEEQFALEVLPDVLEKHYGYKLFIPERDLIPSGTYMEDLTRYVEQSRRLIIVLTPDYILRRGWSIFELESRLHNMLVSGEIKVILIECTELKGKVNCQEVESLKRSIKLLSLIKWKGSKSSKLNSKFWKHLVYEMPIKKKEMLPRCHVLDSAEQGLFGELQPIPSIAMTSTSATLVSSQADLPEFHPSDSMQIRHCCRGYKHEIPATTLPVPSLGNHHTYCNLPLTLLNGQLPLNNTLKDTQEFHRNSSLLPLSSKELSFTSDIW [Q9NP60]
percentage of EdU-negative (MCF7; [4]): 24.9 ± 2.6%
percentage of EdU-negative (MCF7; [5]): 26.8 ± 1.9%
percentage of EdU-negative (hTERT-HMEC; [4]): 4.91 ± 0.99%
percentage of EdU-negative (hTERT-HMEC; [5]): 8.95 ± 0.26%

MAGGRETCLPLIGFILICLKMVASAKSAPEIPTIDQAYSKLSNSITVEWATVPGATSYLLTAEDGDTVIETTVANSPGTVTGLKAATWYEITIRSISAAGRSQASPPKQAKTVLAAPILEVSSPSSDSILVQWEAVYMAIAFSVSIMRANGLGSIWKENTTNTSLTFTSLEAGTLYTIKAYAWNANRIPGDDSTCNQRTSPRAPANIQVSFDSGALKASFSWARAEGAFNYTVMALSDSSELTCSTTFSSCTISSLQCGTEYLISVLASNDAGSSKSSSAMTLKTVACAPGRVTIQEDPPGHLSVAWSSVDLGDYYVVFVKSDDGLEVHCNTSLTQCNFLSECGFTYFISVFVYNKAGQSPLGDIFNYTTAPCCPSDINPVLVSSDRVEIVWSPVRGAELYETKAVDGYNMVECNDTTPACTLSALECDTKYNITVYSFNEVRGSNMSCTPQFITTAPCSPEIKNVSRDAFSMINVHWRSTNDDATYTVTAQGEKGLYQCSSTGESCTMRGLPCGSVFSVTAVAETQAGRSLPSYSVPLETVPCCPTGLTVTQITQSVINVSWTIGRVAQTHVAVLESHTGQSKCHTHQNHCLLGCITCGINYTVTLKAISATGLTADCSYQSYFSGACCPLGVKLYRLGPNGIRIYWQASRGSANYSTDLYGSKGIFTCTPSAGLSFCDVTEIPCGDVYTVMVSPVAKTGLKLTFCPKKIYSVTCSGSTLGMVIYRGKRNEE [Q5VTL7]
percentage of EdU-negative (MCF7; [6]): 25.3 ± 0.94%
percentage of EdU-negative (MCF7; [7]): 35.5 ± 1%
percentage of EdU-negative (hTERT-HMEC; [6]): 4.97 ± 0.23%
percentage of EdU-negative (hTERT-HMEC; [7]): 35.6 ± 3.5%

MALSFSLLMAVLVLSYKSICSLGCDLPQTHSLGNRRALILLAQMGRISHFSCLKDRHDFGFPEEEFDGHQFQKAQAISVLHEMIQQTFNLFSTEDSSAAWEQSLLEKFSTELYQQLNDLEACVIQEVGVEETPLMNEDSILAVRKYFQRITLYLTEKKYSPCAWEVVRAEIMRSLSFSTNLQKRLRRKD
percentage of EdU-negative (MCF7; [8]): 40.1 ± 1.1%
percentage of EdU-negative (MCF7; [9]): 46.8 ± 1.5%
percentage of EdU-negative (hTERT-HMEC; [8]): 9.16 ± 2.3%
percentage of EdU-negative (hTERT-HMEC; [9]): 13.8 ± 2.7%

MKMMLVRRFRVLILMVFLVACALHIALDLLPRLERRGARPSGEPGCSCAQPAAEVAAPGWAQVRGRPGEPPAASSAAGDAGWPNKHTLRILQDFSSDPSSNLSSHSLEKLPPAAEPAERALRGRDPGALRPHDPAHRPLLRDPGPRRSESPPGPGGDASLLARLFEHPLYRVAVPPLTEEDVLFNVNSDTRLSPKAAENPDWPHAGAEGAEFLSPGEAAVDSYPNWLKFHIGINRYELYSRHNPAIEALLHDLSSQRITSVAMKSGGTQLKLIMTFQNYGQALFKPMKQTREQETPPDFFYFSDYERHNAEIAAFHLDRILDFRRVPPVAGRMVNMTKEIRDVTRDKKLWRTFFISPANNICFYGECSYYCSTEHALCGKPDQIEGSLAAFLPDLSLAKRKTWRNPWRRSYHKRKKAEWEVDPDYCEEVKQTPPYDSSHRILDVMDMTIFDFLMGNMDRHHYETFEKFGNETFIIHLDNGRGFGKYSHDELSILVPLQQCCRIRKSTYLRLQLLAKEEYKLSLLMAESLRGDQVAPVLYQPHLEALDRRLRVVLKAVRDCVERNGLHSVVDDDLDTEHRAASAR [Q8IXL6]
percentage of EdU-negative (MCF7; [10]): 23.5 ± 2.4%
percentage of EdU-negative (MCF7; [11]): 24.2 ± 0.32%
percentage of EdU-negative (hTERT-HMEC; [10]): 5.97 ± 0.7%
percentage of EdU-negative (hTERT-HMEC; [11]): 6.51 ± 0.12%
